Data as given in US20240368668A1, “SUBSTRATES AND BIOMARKERS OF ADAMTS7” (The Broad Institute, Inc., priority 2021, published 2024).

Target: T1, mouse ADAMTS7 (Mus musculus, UniProt Q68SA9, E373Q)
T1 construct: Full-length mouse Adamts7 1-1857 (Uniprot Q68SA9, WT or E373Q catalytic mutant); expressed in transfected cells; host or cells: Human Coronary Artery Smooth Muscle Cells (HCA-SMC, Lonza), adenovirus 50 MOI
T1 sequence (Q68SA9 221-1657 E373Q): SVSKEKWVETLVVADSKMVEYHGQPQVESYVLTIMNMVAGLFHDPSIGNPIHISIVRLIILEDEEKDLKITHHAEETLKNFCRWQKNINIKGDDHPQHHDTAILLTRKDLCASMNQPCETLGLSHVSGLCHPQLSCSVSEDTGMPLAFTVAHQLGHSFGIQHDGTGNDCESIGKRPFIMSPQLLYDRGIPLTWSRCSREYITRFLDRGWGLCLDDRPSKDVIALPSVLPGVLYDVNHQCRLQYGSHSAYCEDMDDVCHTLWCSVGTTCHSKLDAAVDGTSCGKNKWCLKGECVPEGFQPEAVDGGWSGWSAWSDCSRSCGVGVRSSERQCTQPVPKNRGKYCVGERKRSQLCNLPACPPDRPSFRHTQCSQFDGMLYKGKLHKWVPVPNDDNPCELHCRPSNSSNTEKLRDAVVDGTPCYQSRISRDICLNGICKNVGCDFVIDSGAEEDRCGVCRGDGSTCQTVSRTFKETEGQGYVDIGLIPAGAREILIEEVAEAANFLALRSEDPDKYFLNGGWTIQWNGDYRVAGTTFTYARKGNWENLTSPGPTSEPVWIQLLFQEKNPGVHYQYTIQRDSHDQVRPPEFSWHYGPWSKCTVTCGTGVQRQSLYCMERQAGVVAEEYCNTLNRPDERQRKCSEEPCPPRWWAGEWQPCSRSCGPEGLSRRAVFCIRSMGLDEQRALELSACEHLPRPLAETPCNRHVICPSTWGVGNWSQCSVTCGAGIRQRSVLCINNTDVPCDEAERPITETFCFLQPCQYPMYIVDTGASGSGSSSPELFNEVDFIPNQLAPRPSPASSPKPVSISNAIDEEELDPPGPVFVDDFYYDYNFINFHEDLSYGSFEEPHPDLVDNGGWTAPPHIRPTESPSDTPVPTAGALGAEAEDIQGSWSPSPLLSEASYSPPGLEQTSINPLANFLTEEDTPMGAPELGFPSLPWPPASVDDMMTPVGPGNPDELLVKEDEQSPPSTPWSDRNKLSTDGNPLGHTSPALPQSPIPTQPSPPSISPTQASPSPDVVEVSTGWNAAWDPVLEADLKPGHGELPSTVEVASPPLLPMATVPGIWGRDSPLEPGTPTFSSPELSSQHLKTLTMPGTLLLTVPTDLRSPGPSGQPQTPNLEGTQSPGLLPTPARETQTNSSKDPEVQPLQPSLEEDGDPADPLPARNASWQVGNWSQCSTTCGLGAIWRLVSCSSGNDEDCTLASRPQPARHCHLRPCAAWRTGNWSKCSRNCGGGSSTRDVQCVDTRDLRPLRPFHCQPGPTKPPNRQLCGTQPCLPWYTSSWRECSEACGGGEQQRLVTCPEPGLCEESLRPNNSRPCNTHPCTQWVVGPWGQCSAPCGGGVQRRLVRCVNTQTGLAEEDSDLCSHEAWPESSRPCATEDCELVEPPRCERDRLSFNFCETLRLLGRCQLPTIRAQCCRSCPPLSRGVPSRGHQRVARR
Assay: TMT10 TAILS N-terminomics, HUVEC experiment (process replicates, trypsin/AspN digest)
Assay type: cell-based, human
Details: HUVEC TAILS HC; log fold change of N-terminal peptide, Ad-mADAMTS7 EQ over Luc
Excerpt: ADAMTS7 Expression, Cell Culture and Preparation of the Secreted Proteins—Full-length mouse Adamts7 1-1857 (Uniprot Q68SA9, WT or E373Q catalytic mutant) with a carboxyl terminal 3xFLAG tag was used to generate custom adenoviruses as previously described. Adeno-CMV-Luciferase (Ad-Luc) from Vector Biolabs was used as a negative control. Human Coronary Artery Smooth Muscle Cells (HCA-SMC) were obtained from Lonza and expanded in Lonza SmGM-2 media in 15 cm tissue culture plates. Twenty-four hours before media collection, near confluent plates were transduced with 50 MOI adenovirus and switched to Lonza Basal SM media with volumes of 20 ml per 15 cm plate. Expression of the Flag tagged ADAMTS7 was confirmed from the media using western blot and detected using the anti-Flag M2-HRP antibody (Sigma, A8592). Collected media was processed by adding protease inhibitors (1 mM EDTA and 1 mM PMSF) and clarified by 500 g×5 min spin at 4 C to pellet cell debris. Cell media supernatants were then passed through a 0.22 um filter and kept chilled. Processed media was then concentrated 50-100× using 3 kDa Centricon Plus-70 filter unit, spun at 3,500 g×60 min at 4 C. Approximately 10% of the processed, concentrated media was set aside for total secretome proteolytic analysis. The remaining 90% of the processed, concentrated media was buffer exchanged into 50 mM HEPES pH 8.0, 150 mM NaCl (2×50 ml) using the 3 kDa Centricon Plus-70 filter unit and concentrated to >2 mg/ml to serve as input for the TAILS experiment. Secretome and TAILS input samples were stored at −80° C.
For the first experiment, referred to as SMC1, 120 ml of media from 6×15 cm dishes was pooled from each condition (Luc, WT, EQ) and processed to produce three separate inputs for the TAILS experiment. Luc, WT and EQ inputs from the SMC1 experiment were each divided into triplicate 400 ug samples to generate technical replicate TAILS data. For the second experiment, referred to as SMC2, media was processed separately in triplicate for each condition (Luc1, Luc2, Luc3, WT1, WT2, WT3, EQ1, EQ2, EQ3) using 60 ml of media from 3×15 cm dishes for each process replicate. Inputs from the SMC2 experiment used process replicates of 300 ug each to generate TAILS data. The third experiment used input from cultured Human umbilical vein endothelial cells (HUVEC) from Lifeline Cell Technology grown in VascuLife Media and transduced in Lifeline Basal EC (+bFGF2 10 ng/ml). The HUVEC experiment used the same strategy as the SMC2 experiment, with 40 ml of media from 2×15 cm dishes for each process replicate and used 200 ug each to generate TAILS data. Inputs for process replicate experiments were restricted to the lowest concentration from the 9 parallel samples for SMC2 or HUVEC.
TMT10 isotopic labeling and negative selection of non-labeled peptides-Sample preparation was performed based on the TAILS protocol from the Overall lab with some modifications. From a single experiment, nine parallel protein samples in 50 mM HEPES pH 8.0, 150 mM NaCl were separately denatured with guanidinium chloride (Sigma, G4505) to reach a final concentration of 2.5M guanidinium chloride and 250 mM HEPES and incubated at 65° C. for 15 min. Reduction was achieved through addition of tris(2-carboxylethyl) phosphine (TCEP) at a final concentration of […] and incubated at 65° C. for 45 min. Alkylation reaction was performed with addition of iodoacetamide (IAA, Sigma, A3221) to a final concentration of 10 mM IAA for 15 min at room temperature in the dark. Following denaturation, reduction and alkylation steps, ten percent of each of the nine parallel protein samples was removed and combined to serve as a pooled reference. Isobaric tags were added to free amine groups using the TMT10plex Isobaric Mass Tagging Kit (ThermoFisher, 90113) with TMT channels randomly assigned to the nine samples and TMT 131 assigned to the pooled reference. […]

Substance | logFC.mEQ.over.Luc
AEBP1_37 (FLEGFLSELEPEPR; listed as Homo sapiens) | −0.58
EFEMP1_124 (AVAGPEMQTGR; listed as Homo sapiens) | −0.38
FBN1_29 (LEAGNVKETR; listed as Homo sapiens) | −0.34
FLNA_1285 (LTQTGGPHVKAR; listed as Homo sapiens) | −0.52
FN1_36 (MVQPQSPVAVSQSKPGCYDNGKHYQINQQWER; listed as Homo sapiens) | −0.47
FN1_40 (QSPVAVSQSKPGCYDNGKHYQINQQWER; listed as Homo sapiens) | −0.50
FN1_886 (NQESTPVVIQQETTGTPR; listed as Homo sapiens) | −0.43
FN1_1143 (LTPGVEYVYTIQVLR; listed as Homo sapiens) | −0.24
FN1_1656 (SSSPVTGYR; listed as Homo sapiens) | −0.08
HSPG2_2331 (ANLAYPAGSTQPIR; listed as Homo sapiens) | −0.01
IGFBP7_101 (AAGGPGVSGVCVCKSR; listed as Homo sapiens) | −0.04
LOXL2_37 (FQQPAPEYHQPQAPANVAKIQLR; listed as Homo sapiens) | −0.65
LOX_124 (WFQAGYSTSR; listed as Homo sapiens) | 0.03
LTBP1_393 (LTATNFR; listed as Homo sapiens) | −0.18
